Source: patent US7605231B2, “Gelatin derivatives and high-molecular micelle comprising the derivatives” (NOF Corporation, priority 2002, dated 2009)

Experiments:
trypsin = experiment: In vitro stability test to enzyme: trypsin + second solution, SDS-PAGE; format: in vitro ADME; settings: trypsin (10 U/mL) + second solution
Method: (§1) Of the various PEG-grafted gelatin derivatives prepared in Example 22, 50 mg of a gelatin derivative prepared by using 2-fold mols of PEG having a molecular weight of 5000 was dissolved in 1 ml of DDW (50 mg/mL). 500 μL of the resulting solution was added to 4.5 ml of each of a Japanese Pharmacopoeia first solution (pH 1.2), a second solution (pH 6.8), pepsin (10 U/mL)+first solution or trypsin (10 U/mL)+second solution and subjected to disintegration test. The test was carried out under the conditions based on Japanese Pharmacopoeia disintegration test. The decomposition of the gelatin was evaluated by carrying out SDS-PAGE of the sample prepared after the test. Further, 500 μL of the sample was added to 4.5 mL of DDW to prepare a control group.
(§2) 50 mg of gelatin, which was not subjected to PEG grafting, was dissolved in 1 ml of DDW. 500 μL of the resulting solution was added to 4.5 mL of each of DDW, first solution, second solution, pepsin+first solution and trypsin+second solution, respectively, and then, subjected to disintegration test. The test was carried out under the conditions based on Japanese Pharmacopoeia disintegration test. The decomposition of the gelatin was evaluated by carrying out SDS-PAGE of the sample prepared after the test.

macrophage = experiment: Test of macrophage adhesion property (SEM); format: cell-based, mouse; settings: crosslinked with heating at 160° C. for 3 hours, cultured 24 hours
Method: 1 g of gelatin or a derivative thereof was dissolved in 10 mL of purified water while heating. This resulting polymer solution was injected into a PFA made laboratory dish and allowed to stand at 4° C. for 12 hours to conduct gelation sufficiently. The resulting gel was lyophilized and then subjected to cross-linking treatment with heating at 160° C. for 3 hours under reduced pressure in vacuum.
First, to 10-week old female ddy mouse, 2 ml of a previously sterilized Brewer's thioglycolate medium (manufactured by Difco Co.) was administered to intraperitoneal. After 5 days, the mouse was killed with blood-letting and 5 ml of PBS(−) cooled at 4° C. was administered intraperitoneal. After 5 minutes, about 4 ml of intraperitoneal effusion was recovered and was centrifuged at 8000 revolution/min for about 5 minutes to prepare a cell mass of effused macrophage. To the cell mass, 2 ml of RPMI1640 medium containing 10% FCS was added and sufficiently suspended.
Next, a specimen prepared in accordance with “the method of preparing the specimen for evaluating adhesion of macrophage” according to the above-mentioned (1) was sufficiently swelled with a RPMI1640 medium to prepare a specimen for evaluating the adhesion property of macrophage. […] Surface observation was carried out by a scanning electron microscope (Hitachi Type S-3000N) and the adhesion of macrophage was evaluated.

[1] = In vitro disintegration test in Japanese Pharmacopoeia first and second solutions, SDS-PAGE; format: physicochemical
Method: as §1, §2

[2] = Solubilizing of paclitaxel; format: physicochemical; settings: 30 μL of 10 mg/ml paclitaxel in ethanol + 500 μL of 2% aqueous solution
Method: A 10 mg/ml ethanol solution of paclitaxel was prepared as (a PTX solution).
A 2% gelatin aqueous solution was prepared as a gelatin solution.

[3] = Micelle form by affinity column (HiTrap Blue HP) that adsorbs gelatin; format: physicochemical; settings: pH 7.4 bonding buffer, 2M NaCl elution
Method: The forms of the core and the shell of micelle were studied using affinity column, which adsorbs gelatin. Namely, HiTrap (Trade Mark) Blue HP column (manufactured by Amersham Pharmacia Co., Ltd.) was washed with 10 ml of an isotonic phosphate buffer with a pH of 7.4 and thereafter, 0.5 ml of a PEG-grafted gelatin micelle solution was applied. 5 ml of the isotonic phosphate buffer with a pH of 7.4 was used as a bonding buffer and 5 ml of a 2M aqueous sodium chloride solution was used as an elution buffer. The solution was fractionated with each 0.4 ml portions and the gelatin in each of the fractions was measured by the Lowery method.
The forms of the core and the shell of the micelle was studied using affinity column in which gelatin was adsorbed. Namely, HiTrap (Trade Mark) Blue HP column (manufactured by Amersham Pharmacia Co., Ltd.) was washed with 10 ml of an isotonic phosphate buffer with a pH of 7.4 and thereafter, 0.5 ml of a PEG-grafted gelatin micelle solution was applied. 5 ml of the pH isotonic phosphate buffer with a pH of 7.4 was used as a bonding buffer and 5 ml of a 2M aqueous sodium chloride solution was used as an elution buffer. The solution was fractionated with each 0.4 ml portions and the gelatin in each fraction was measured by the Lowery method. […]

[4] = Critical micelle formation concentration (CMC) by PNA incorporation; format: physicochemical; settings: isotonic phosphate buffer pH 7.4, PNA incorporation
Method: With regard to the PEG-grafted gelatin prepared, the critical micelle formation concentration (CMC) was measured. The CMC was measured by incorporating N-phenyl-1-naphtylamine (PNA) into the micelle. Using an isotonic phosphate buffer with a pH of 7.4, various concentrations—having PEG-grafted gelatin aqueous solutions were prepared. 0.1 ml of the PNA solution dissolved in methanol having a concentration of 5.0×10^−3M was added to 2 ml of the PEG-grafted gelatin solution and stirred for 2 minutes. Thereafter, the absorbance at a wavelength of 500 nm was measured using a spectrophotometer.
With regard to the PEG-grafted succinated gelatin prepared, the critical micelle forming concentration (CMC) was measured. The CMC was measured by incorporating N-phenyl-1-naphtyl amine (PNA) into the micelle. Using an isotonic phosphate buffer with a pH of 7.4, PEG-grafted succinated gelatin aqueous solutions with various concentrations were prepared. […] Thereafter, the absorbance at a wavelength of 500 nm was measured using a spectrophotometer.
Micelle solutions were prepared in accordance with the method of Example 3 from the PEG-grafted gelatin derivatives prepared in Example 22 and the CMC of each derivative was measured in accordance with Example 5.

pepsin = experiment: In vitro stability test to enzyme: pepsin + first solution, SDS-PAGE; format: in vitro ADME; settings: pepsin (10 U/mL) + first solution
Method: as §1, §2

gelatin
lowering of the gelatin molecular weight (trypsin): a lowering of the gelatin molecular weight was confirmed
adhesion of macrophage to the surface (macrophage): tightly covered with the cells such as macrophage
lowering of the gelatin molecular weight ([1]; Japanese Pharmacopoeia first solution (pH 1.2)): a lowering of the gelatin molecular weight was confirmed
lowering of the gelatin molecular weight ([1]; Japanese Pharmacopoeia second solution (pH 6.8)): except for the control group and the second solution, a lowering of the gelatin molecular weight was confirmed
appearance on mixing with paclitaxel solution [2]: white precipitation
adsorption to affinity column [3]: adsorbed to the affinity column
CMC (whether admitted) [4]: CMC was not admitted
lowering of the gelatin molecular weight (pepsin): a lowering of the gelatin molecular weight was confirmed
